From patent US9327008B2, “Cell-permeant peptide-based inhibitor of kinases” (Purdue Research Foundation, priority 2008, dated 2016)

Columns and labels:
Assay type in all cases: biochemical
EphA2 = molecular target: T1, EphA2 (Homo sapiens, UniProt P29317); test: Millipore radiometric kinase activity assay, EphA2 (h)
T1 construct: purchased Millipore (assay service)
Procedure: (§1) A commercial radiometric assay service (Millipore, Billerica, Mass.) was used to test the specificity and potency of peptides containing a coupled transduction domain and therapeutic domain, hereinafter “complete peptides”). In these assays, if the kinase is not inhibited by an inhibitor peptide, a positively charged substrate is phosphorylated with a radiolabeled phosphate group from an ATP.
(§2) In a final reaction volume of 25 μL, EphA2 (h) (5-10 mU) is incubated with 8 mM MOPS pH 7.0, 0.2 mM EDTA, 0.1 mg/mL poly(Glu, Tyr) 4:1, 10 mM MgAcetate and [γ-^33P-ATP] (specific activity approx. 500 cpm/pmol, concentration as required). The reaction is initiated by the addition of the MgATP mix. After incubation for 40 minutes at room temperature, the reaction is stopped by the addition of 5 μL of a 3% phosphoric acid solution. 10 μL of the reaction is then spotted onto a Filtermat A and washed three times for 5 minutes in 75 mM phosphoric acid and once in methanol prior to drying and scintillation counting.
(§3) IC50 values for inhibitor peptides were determined using Millipore's IC50Profiler Express service. The IC50 value was estimated from a 10-point curve of one-half log dilutions. For peptides tested for specificity, the concentration of the peptides that inhibited approximately 95% of MK2 activity was chosen to profile against a battery of kinases related to MK2, cell viability, or human disease from MilliporeKinaseProfiler service. In both assays, compounds were supplied in dimethylsulfoxide (DMSO). Every kinase activity measurement was conducted in duplicate.
(§4) Therapeutic inhibitor peptides were assayed for activity against human kinases related to MK2, cell viability, or human disease. The assays were performed using concentrations of therapeutic inhibitor peptides that yielded 2% to 8% of normal MK2 activity. Error is reported as the standard deviation between 2 samples, and “c” is rat AMPK whereas all other kinases used are human kinases.

FGFR1 = molecular target: T2, FGFR1 (Homo sapiens, UniProt P11362); test: Millipore radiometric kinase activity assay, FGFR1 (h)
T2 construct: purchased Millipore (assay service)
T2 sequence (P11362 22-822): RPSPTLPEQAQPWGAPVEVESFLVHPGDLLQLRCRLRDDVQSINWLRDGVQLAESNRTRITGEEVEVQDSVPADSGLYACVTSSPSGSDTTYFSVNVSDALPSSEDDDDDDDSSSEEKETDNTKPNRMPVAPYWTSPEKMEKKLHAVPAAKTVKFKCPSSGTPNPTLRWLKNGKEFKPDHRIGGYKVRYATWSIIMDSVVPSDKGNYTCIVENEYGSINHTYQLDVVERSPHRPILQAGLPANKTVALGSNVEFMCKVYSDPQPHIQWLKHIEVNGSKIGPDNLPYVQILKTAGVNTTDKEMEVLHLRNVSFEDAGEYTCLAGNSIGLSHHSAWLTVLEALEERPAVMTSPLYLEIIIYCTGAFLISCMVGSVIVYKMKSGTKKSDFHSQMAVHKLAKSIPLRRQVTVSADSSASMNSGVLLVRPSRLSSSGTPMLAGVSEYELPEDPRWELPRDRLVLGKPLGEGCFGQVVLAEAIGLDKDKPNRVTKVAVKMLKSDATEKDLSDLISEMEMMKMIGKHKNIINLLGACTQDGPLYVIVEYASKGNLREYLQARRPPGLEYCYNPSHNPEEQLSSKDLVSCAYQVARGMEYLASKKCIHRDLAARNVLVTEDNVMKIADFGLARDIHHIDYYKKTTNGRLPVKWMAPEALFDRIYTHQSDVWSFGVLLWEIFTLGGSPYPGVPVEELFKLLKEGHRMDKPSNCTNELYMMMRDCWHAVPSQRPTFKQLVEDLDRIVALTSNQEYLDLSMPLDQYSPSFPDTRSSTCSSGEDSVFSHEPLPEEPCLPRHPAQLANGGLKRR
Procedure: as §1
as §2, with “25 μL, FGFR1 (h) (5-10” for “25 μL, EphA2 (h) (5-10”, “mM EDTA, 250 μM […] [SEQ ID NO: 56], 10 mM” for “mM EDTA, 0.1 mg/mL poly(Glu, Tyr) 4:1, 10 mM”, “of 5 μL, of a” for “of 5 μL of a”, “solution. 10 μL, of the” for “solution. 10 μL of the”, “onto a P30 filtermat and washed” for “onto a Filtermat A and washed”
as §3, §4

CK1δ = molecular target: T3, CK1δ (Homo sapiens, UniProt P48730); test: Millipore radiometric kinase activity assay, CK1δ (h)
T3 construct: purchased Millipore (assay service)
T3 sequence (P48730 whole entry): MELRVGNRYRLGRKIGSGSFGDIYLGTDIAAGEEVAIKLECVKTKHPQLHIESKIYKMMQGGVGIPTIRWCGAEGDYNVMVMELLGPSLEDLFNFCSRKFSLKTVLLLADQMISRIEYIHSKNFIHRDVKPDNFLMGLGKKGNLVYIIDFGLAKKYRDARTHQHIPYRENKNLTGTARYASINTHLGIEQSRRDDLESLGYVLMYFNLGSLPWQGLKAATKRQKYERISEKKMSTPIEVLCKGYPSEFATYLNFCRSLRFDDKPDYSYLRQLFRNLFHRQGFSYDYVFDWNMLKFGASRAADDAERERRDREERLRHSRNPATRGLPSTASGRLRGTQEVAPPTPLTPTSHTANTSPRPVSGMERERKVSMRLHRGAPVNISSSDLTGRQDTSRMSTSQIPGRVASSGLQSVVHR
Procedure: as §1
as §2, with “CK1δ” for “EphA2”, “200 μM KRRRALS(p)VASLPGL [SEQ ID NO: 54],” for “0.1 mg/mL poly(Glu, Tyr) 4:1,”, “P30 filtermat” for “Filtermat A”
as §3, §4

PKA = molecular target: T4, PKA (Homo sapiens, UniProt P17612); test: Millipore radiometric kinase activity assay, PKA (h)
T4 construct: purchased Millipore (radiometric assay service)
Procedure: as §1
as §2, with “PKA” for “EphA2”, “30 μM LRRASLG [SEQ ID NO: 50] (Kemptide),” for “0.1 mg/mL poly(Glu, Tyr) 4:1,”, “solution,” for “solution.”, “P30 filtermat” for “Filtermat A”, “50” for “75”
as §3, §4

BTK = molecular target: T5, BTK (Homo sapiens, UniProt Q06187); test: Millipore radiometric kinase activity assay, BTK (h)
T5 construct: purchased Millipore (assay service)
T5 sequence (Q06187 whole entry): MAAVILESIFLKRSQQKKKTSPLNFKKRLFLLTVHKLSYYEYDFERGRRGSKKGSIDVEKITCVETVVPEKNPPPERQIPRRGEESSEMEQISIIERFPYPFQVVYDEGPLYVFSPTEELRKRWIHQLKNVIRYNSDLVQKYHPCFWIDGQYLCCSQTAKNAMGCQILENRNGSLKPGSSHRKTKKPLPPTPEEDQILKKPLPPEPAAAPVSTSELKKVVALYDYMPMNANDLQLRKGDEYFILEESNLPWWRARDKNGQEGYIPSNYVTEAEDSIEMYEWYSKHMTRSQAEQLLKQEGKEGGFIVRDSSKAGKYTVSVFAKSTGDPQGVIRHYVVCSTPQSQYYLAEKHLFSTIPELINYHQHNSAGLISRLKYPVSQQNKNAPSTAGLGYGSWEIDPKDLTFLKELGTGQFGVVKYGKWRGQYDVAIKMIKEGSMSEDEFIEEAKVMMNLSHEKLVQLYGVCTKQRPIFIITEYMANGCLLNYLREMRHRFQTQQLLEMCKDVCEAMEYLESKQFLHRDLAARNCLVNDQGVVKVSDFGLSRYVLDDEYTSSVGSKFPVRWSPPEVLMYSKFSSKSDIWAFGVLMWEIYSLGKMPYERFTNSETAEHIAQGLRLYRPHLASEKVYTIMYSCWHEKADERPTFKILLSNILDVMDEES
Excerpt: A commercial radiometric assay service (Millipore, Billerica, Mass.) was used to test the specificity and potency of peptides containing a coupled transduction domain and therapeutic domain, hereinafter “complete peptides”). In these assays, if the kinase is not inhibited by an inhibitor peptide, a positively charged substrate is phosphorylated with a radiolabeled phosphate group from an ATP. […] The reaction is initiated by the addition of the MgATP mix. […] IC50 values for inhibitor peptides were determined using Millipore's IC50Profiler Express service. The IC50 value was estimated from a 10-point curve of one-half log dilutions. […] In both assays, compounds were supplied in dimethylsulfoxide (DMSO). Every kinase activity measurement was conducted in duplicate. Therapeutic inhibitor peptides were assayed for activity against human kinases related to MK2, cell viability, or human disease. […] Error is reported as the standard deviation between 2 samples, and “c” is rat AMPK whereas all other kinases used are human kinases.

T1 sequence (P29317 24-976): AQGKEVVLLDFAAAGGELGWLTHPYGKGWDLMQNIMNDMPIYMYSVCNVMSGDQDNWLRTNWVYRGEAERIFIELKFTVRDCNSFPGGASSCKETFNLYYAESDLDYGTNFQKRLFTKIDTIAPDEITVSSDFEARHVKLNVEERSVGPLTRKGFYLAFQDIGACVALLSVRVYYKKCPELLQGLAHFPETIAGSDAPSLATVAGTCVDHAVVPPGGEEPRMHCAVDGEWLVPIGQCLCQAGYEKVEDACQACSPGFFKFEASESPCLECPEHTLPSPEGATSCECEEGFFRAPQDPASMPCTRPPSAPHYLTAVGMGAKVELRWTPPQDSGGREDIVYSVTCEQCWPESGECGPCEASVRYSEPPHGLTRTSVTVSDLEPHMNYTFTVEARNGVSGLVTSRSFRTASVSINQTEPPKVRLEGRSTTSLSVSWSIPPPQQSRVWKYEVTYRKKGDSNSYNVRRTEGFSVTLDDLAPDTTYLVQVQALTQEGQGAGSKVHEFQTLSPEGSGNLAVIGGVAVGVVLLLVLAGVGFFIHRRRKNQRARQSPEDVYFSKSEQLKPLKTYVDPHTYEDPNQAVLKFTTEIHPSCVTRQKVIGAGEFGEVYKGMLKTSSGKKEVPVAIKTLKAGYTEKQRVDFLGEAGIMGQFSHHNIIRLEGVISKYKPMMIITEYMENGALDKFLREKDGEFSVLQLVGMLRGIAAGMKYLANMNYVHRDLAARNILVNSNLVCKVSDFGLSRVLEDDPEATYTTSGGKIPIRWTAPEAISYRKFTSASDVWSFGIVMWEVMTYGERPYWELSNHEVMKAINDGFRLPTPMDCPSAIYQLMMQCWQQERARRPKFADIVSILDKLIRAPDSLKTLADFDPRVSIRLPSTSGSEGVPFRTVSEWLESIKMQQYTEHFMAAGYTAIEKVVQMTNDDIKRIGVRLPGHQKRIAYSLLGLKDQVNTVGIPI

Row | Sequence | EphA2 Kinase Activity (%) (+SD %) (EphA2; peptide 30 μM) | EphA2 Kinase Activity (%) (+SD %) (EphA2; peptide 100 μM) | FGFR1 Kinase Activity (%) (+SD %) (FGFR1; peptide 30 μM) | FGFR1 Kinase Activity (%) (+SD %) (FGFR1; peptide 100 μM) | CK1δ Kinase Activity (%) (+SD %) (CK1δ; peptide 30 μM) | CK1δ Kinase Activity (%) (+SD %) (CK1δ; peptide 100 μM) | PKA Kinase Activity (%) (+SD %) (PKA; peptide 30 μM) | PKA Kinase Activity (%) (+SD %) (PKA; peptide 100 μM) | BTK Kinase Activity (%) (+SD %) (BTK; peptide 30 μM) | BTK Kinase Activity (%) (+SD %) (BTK; peptide 100 μM)
1 | WLRRIKAWLRRIKALNRQLGVAA | 38 (4) % | 32 (2) % | 27 (1) % | 22 (1) % | 52 (1) % | 99 (3) % | 80 (1) % | 76 (8) % | 5 (0) % | 19 (1) %
2 | KAFAKLAARLYRKALARQLGVAA |  | 22 (7) % |  | 35 (1) % |  | 97 (2) % |  | 103 (1) % |  | 16 (3) %
